Measurements reported in patent US20250026787A1 (GLO PHARMA, published 2025).
Square brackets hold non-standard residues; d marks the D form. Ends that are not written are not given here.

Target: T1, Human recombinant melanocortin MC1 receptor (human, UniProt Q01726 1-317)
T1 construct: whole, on cells; Eurofins Discovery assay Item 251100; a 3 ug aliquot of receptors from CHO-K1 cells was incubated, filtered and washed (probably a membrane preparation); also called Melanocortin 1 Receptor; MCIR
T1 sequence (Q01726 whole entry): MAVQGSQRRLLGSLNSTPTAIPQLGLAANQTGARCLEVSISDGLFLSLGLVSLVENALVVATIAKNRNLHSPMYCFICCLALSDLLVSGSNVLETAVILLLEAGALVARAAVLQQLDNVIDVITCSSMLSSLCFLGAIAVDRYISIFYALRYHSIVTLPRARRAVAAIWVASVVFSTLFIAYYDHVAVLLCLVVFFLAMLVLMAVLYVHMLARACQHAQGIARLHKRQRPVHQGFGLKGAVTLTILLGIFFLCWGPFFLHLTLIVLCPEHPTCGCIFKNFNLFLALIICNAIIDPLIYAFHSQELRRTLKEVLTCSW
Assay: radioligand competition, displacement of [125I]NDP-alpha-MSH from human MC1R (CHO-K1), Example 1
Description: (§1) The binding of Group A MCIR peptide antagonists of the disclosure was evaluated in a competition assay (MC1 Human Melanocortin GPCR Binding (Agonist Radioligand) Assay, Item 251100, Eurofins Discovery). Peptides were synthesized by AnaSpec (Fremont, CA). Human recombinant melanocortin MCI receptors were expressed in CHO-K1 cells in modified HEPES-KOH buffer pH 7.0. A 3 μgs aliquot was incubated with 0.04 nM [¹²⁵I]NDP-α-MSH for 120 minutes at 37° C. Non-specific binding was estimated in the presence of 1 μM NDP-α-MSH. Receptors were filtered and washed, and the filters counted to determine [¹²⁵I] NDP-α-MSH specifically bound. Peptide antagonists of the disclosure having amino acid sequences as set forth in SEQ ID NOS: 11, 16, 25, 27, 32, 35, and 40 (each having a C-terminal —NH2) were screened at five concentrations, as well as a positive control, SEQ ID NO: 1 (Melanostatine-5). Inhibition curves were obtained by determining the reduction of bound α-MSH in the presence of an amount of, and/or by increasing amounts of, each peptide antagonist. Non-specific binding of peptide was estimated separately in the presence of a vast excess (1 mM) of unlabeled α-MSH, which occupies all the available receptor binding sites.
Based on the competitive binding curve, the IC₅₀ values were determined (Eurofins or AAT Bioquest IC₅₀ calculator). […]

| IC50 | Binder |
| --- | --- |
| 120 nM | MP[dF]R[dW]FKPV (Printed as Met-Pro-D-Phe-Arg-D-Trp-Phe-Lys-Pro-Val; no terminal modification is printed for the control; also called control; positive control) [Melanostatine-5 / Nonapeptide-1 (SEQ ID NO: 1)] |

Target: T1, Human recombinant melanocortin MC1 …
Assay: radioligand competition, displacement of [125I]NDP-alpha-MSH from human MC1R (CHO-K1), Example 7
Description: as §1, with “[¹²⁵I]NDP-α-MSH” for “[¹²⁵I] NDP-α-MSH”, “40” for “40 (each having a C-terminal —NH2)”, “concentrations.” for “concentrations, as well as a positive control, SEQ ID NO: 1 (Melanostatine-5).”, “antagonist.” for “antagonist. Non-specific binding of peptide was estimated separately in the presence of a vast excess (1 mM) of unlabeled α-MSH, which occupies all the available receptor binding sites.”

| Binder | IC50 |
| --- | --- |
| MVFR[dW]FKPV-NH2 (N-terminus assumed; SMILES CSCC[C@H](N)C(=O)N[C@H](C(=O)N[C@@H](Cc1ccccc1)C(=O)N[C@@H](CCCNC(=N)N)C(=O)N[C@H](Cc1c[nH]c2ccccc12)C(=O)N[C@@H](Cc1ccccc1)C(=O)N[C@@H](CCCCN)C(=O)N1CCC[C@H]1C(=O)N[C@H](C(N)=O)C(C)C)C(C)C, Printed as Met-Val-Phe-Arg-dTrp-Phe-Lys-Pro-Val-NH2) [SEQ ID NO: 27] | > 500 nM |
| AV[dF]R[dW]FKPV-NH2 (N-terminus assumed; SMILES CC(C)[C@H](NC(=O)[C@@H]1CCCN1C(=O)[C@H](CCCCN)NC(=O)[C@H](Cc1ccccc1)NC(=O)[C@@H](Cc1c[nH]c2ccccc12)NC(=O)[C@H](CCCNC(=N)N)NC(=O)[C@@H](Cc1ccccc1)NC(=O)[C@@H](NC(=O)[C@H](C)N)C(C)C)C(N)=O, Printed as Ala-Val-dPhe-Arg-dTrp-Phe-Lys-Pro-Val-NH2) [SEQ ID NO: 11] | 200 to 500 nM |
| EV[dF]R[dW]FKPV-NH2 (N-terminus assumed; SMILES CC(C)[C@H](NC(=O)[C@@H]1CCCN1C(=O)[C@H](CCCCN)NC(=O)[C@H](Cc1ccccc1)NC(=O)[C@@H](Cc1c[nH]c2ccccc12)NC(=O)[C@H](CCCNC(=N)N)NC(=O)[C@@H](Cc1ccccc1)NC(=O)[C@@H](NC(=O)[C@@H](N)CCC(=O)O)C(C)C)C(N)=O, Printed as Glu-Val-dPhe-Arg-dTrp-Phe-Lys-Pro-Val-NH2) [SEQ ID NO: 25] | > 500 nM |

The next lines start with the values.

| IC50 | Binder |
| --- | --- |
| < 200 nM | FV[dF]R[dW]FKPV-NH2 (N-terminus assumed; SMILES CC(C)[C@H](NC(=O)[C@@H]1CCCN1C(=O)[C@H](CCCCN)NC(=O)[C@H](Cc1ccccc1)NC(=O)[C@@H](Cc1c[nH]c2ccccc12)NC(=O)[C@H](CCCNC(=N)N)NC(=O)[C@@H](Cc1ccccc1)NC(=O)[C@@H](NC(=O)[C@@H](N)Cc1ccccc1)C(C)C)C(N)=O, Printed as Phe-Val-dPhe-Arg-dTrp-Phe-Lys-Pro-Val-NH2) [SEQ ID NO: 16] |
| < 200 nM | MP[dF]R[dW]FKPV (Printed as Met-Pro-D-Phe-Arg-D-Trp-Phe-Lys-Pro-Val; no terminal modification is printed for the control; also called control; positive control) [Melanostatine-5 / Nonapeptide-1 (SEQ ID NO: 1)] |
| < 200 nM | IFR[dW]FKPV-NH2 (N-terminus assumed; SMILES CC[C@H](C)[C@H](N)C(=O)N[C@@H](Cc1ccccc1)C(=O)N[C@@H](CCCNC(=N)N)C(=O)N[C@H](Cc1c[nH]c2ccccc12)C(=O)N[C@@H](Cc1ccccc1)C(=O)N[C@@H](CCCCN)C(=O)N1CCC[C@H]1C(=O)N[C@H](C(N)=O)C(C)C, Printed as Ile-Phe-Arg-dTrp-Phe-Lys-Pro-Val-NH2 (8 residues)) [SEQ ID NO: 32] |
